In patent US20240150484A1:

Columns and labels:
[1] = molecular target: His-tagged biotinylated cynomolgus FcγRIIb monomeric ECD (Sino Biological) (cynomolgus (Macaca fascicularis)); assay: BLI, FcγR on SA sensor, steady state
[2] = molecular target: His-tagged biotinylated cynomolgus FcγRIIa monomeric ECD (Sino Biological) (cynomolgus (Macaca fascicularis)); assay: BLI, FcγR on SA sensor, steady state
[3] = molecular target: His-tagged biotinylated murine FcγRIII monomeric ECD (Sino Biological) (murine) (UniProt P08508); assay: BLI, FcγR on SA sensor, steady state
Sequence of His-tagged biotinylated murine FcγRIII monomeric ECD (Sino Biological) (murine) (P08508 31-215): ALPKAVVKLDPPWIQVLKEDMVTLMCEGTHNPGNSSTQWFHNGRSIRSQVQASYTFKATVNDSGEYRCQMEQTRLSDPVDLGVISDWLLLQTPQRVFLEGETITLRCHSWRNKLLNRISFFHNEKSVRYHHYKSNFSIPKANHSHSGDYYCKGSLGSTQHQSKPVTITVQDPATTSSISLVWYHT

[4] = molecular target: His-tagged biotinylated human FcγRIIIa allotype 158V monomeric ECD (Sino Biological) (human) (UniProt P08637); assay: BLI, FcγR on SA sensor, steady state
Sequence of His-tagged biotinylated human FcγRIIIa allotype 158V monomeric ECD (Sino Biological) (human) (P08637 17-208 F176V): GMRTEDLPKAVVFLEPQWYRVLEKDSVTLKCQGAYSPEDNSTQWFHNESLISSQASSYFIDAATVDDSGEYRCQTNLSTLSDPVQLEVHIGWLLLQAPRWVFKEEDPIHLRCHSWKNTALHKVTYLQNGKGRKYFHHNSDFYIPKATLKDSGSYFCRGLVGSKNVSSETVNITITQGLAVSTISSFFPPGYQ

[5] = molecular target: His-tagged biotinylated murine FcγRIIb monomeric ECD (Sino Biological) (murine) (UniProt P08101); assay: BLI, FcγR on SA sensor, steady state
Sequence of His-tagged biotinylated murine FcγRIIb monomeric ECD (Sino Biological) (murine) (P08101 30-210): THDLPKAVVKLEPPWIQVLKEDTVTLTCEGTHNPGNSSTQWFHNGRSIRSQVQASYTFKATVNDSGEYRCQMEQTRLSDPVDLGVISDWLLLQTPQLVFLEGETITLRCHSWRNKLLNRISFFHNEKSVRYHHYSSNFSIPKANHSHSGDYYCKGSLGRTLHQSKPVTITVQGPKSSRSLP

[6] = molecular target: His-tagged biotinylated cynomolgus FcγRIII monomeric ECD (ACROBiosystems) (cynomolgus (Macaca fascicularis)) (UniProt Q8SPW2); assay: BLI, FcγR on SA sensor, steady state
Sequence of His-tagged biotinylated cynomolgus FcγRIII monomeric ECD (ACROBiosystems) (cynomolgus (Macaca fascicularis)) (Q8SPW2 17-208): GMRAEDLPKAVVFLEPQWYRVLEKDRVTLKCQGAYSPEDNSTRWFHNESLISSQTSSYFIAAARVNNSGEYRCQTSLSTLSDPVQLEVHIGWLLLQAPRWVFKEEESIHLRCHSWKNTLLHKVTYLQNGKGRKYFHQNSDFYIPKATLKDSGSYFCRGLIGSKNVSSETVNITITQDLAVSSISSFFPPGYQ

[7] = molecular target: His-tagged biotinylated murine FcγRIV monomeric ECD (Sino Biological) (murine); assay: BLI, FcγR on SA sensor, steady state
Sequence of His-tagged biotinylated murine FcγRIV monomeric ECD (Sino Biological) (murine) (A0A0B4 entry or part of it limits assumed): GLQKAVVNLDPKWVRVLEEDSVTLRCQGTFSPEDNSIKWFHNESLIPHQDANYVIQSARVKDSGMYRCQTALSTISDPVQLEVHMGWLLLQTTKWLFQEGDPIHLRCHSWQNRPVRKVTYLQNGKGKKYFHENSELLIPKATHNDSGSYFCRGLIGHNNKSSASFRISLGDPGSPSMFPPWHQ

[8] = molecular target: His-tagged murine FcγRI monomeric ECD (Sino Biological) (murine) (UniProt P26151); assay: BLI, FcγR on Ni-NTA sensor, 1:1 global fit
Sequence of His-tagged murine FcγRI monomeric ECD (Sino Biological) (murine) (P26151 25-297): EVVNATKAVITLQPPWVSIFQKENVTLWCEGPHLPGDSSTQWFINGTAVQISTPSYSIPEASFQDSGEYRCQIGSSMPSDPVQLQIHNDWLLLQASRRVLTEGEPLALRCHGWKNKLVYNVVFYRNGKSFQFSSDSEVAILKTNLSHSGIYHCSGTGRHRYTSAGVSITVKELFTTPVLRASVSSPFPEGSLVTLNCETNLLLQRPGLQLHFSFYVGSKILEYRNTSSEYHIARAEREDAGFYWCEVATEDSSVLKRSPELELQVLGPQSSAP

[9] = molecular target: His-tagged cynomolgus FcγRI monomeric ECD (R&D Systems) (cynomolgus (Macaca fascicularis)); assay: BLI, FcγR on Ni-NTA sensor, 1:1 global fit
[10] = molecular target: His-tagged human FcγRIa monomeric ECD (Sino Biological) (human) (UniProt P12314); assay: BLI, FcγR on Ni-NTA sensor, 1:1 global fit
Sequence of His-tagged human FcγRIa monomeric ECD (Sino Biological) (human) (P12314 16-292): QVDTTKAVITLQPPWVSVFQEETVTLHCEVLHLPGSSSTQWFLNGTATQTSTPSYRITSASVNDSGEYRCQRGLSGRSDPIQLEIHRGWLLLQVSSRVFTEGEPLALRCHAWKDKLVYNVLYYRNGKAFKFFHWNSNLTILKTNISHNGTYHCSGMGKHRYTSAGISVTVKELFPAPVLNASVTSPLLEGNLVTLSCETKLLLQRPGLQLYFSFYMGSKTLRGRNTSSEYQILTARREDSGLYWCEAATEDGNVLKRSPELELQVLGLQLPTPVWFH

[11] = molecular target: FcγRIIIa on natural killer cells in human PBMC (human) (UniProt P08637); assay: cell-based or functional assay
Sequence of FcγRIIIa on natural killer cells in human PBMC (human) (P08637 17-254): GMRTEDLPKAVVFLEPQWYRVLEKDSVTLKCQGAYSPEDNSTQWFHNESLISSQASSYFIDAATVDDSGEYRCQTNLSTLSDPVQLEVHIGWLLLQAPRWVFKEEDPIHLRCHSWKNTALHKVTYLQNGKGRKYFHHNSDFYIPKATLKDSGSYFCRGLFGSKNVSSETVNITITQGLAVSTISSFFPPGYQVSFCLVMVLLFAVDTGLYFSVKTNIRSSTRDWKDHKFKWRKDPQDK

[12] = molecular target: His-tagged biotinylated murine FcγRIV monomeric ECD (Sino Biological) (murine); assay: BLI
[13] = molecular target: His-tagged biotinylated human FcγRIIIa allotype 158V monomeric ECD (Sino Biological) (human) (UniProt P08637); assay: BLI, steady state; responses did not reach a plateau
[14] = molecular target: His-tagged biotinylated human FcγRIIIa allotype 158V monomeric ECD (Sino Biological) (human) (UniProt P08637); assay: as above; remark: listed apart in the source
[15] = molecular target: His-tagged biotinylated murine FcγRIV monomeric ECD (Sino Biological) (murine); assay: as above
[16] = molecular target: His-tagged human FcγRIa monomeric ECD (Sino Biological) (human) (UniProt P12314); assay: BLI, 1:1 global fit; analysis not optimal, <4 fits
[17] = molecular target: His-tagged murine FcγRI monomeric ECD (Sino Biological) (murine) (UniProt P26151); assay: BLI
[18] = molecular target: His-tagged murine FcγRI monomeric ECD (Sino Biological) (murine) (UniProt P26151); assay: BLI, 1:1 global fit; analysis not optimal, <4 fits
[19] = molecular target: His-tagged biotinylated human FcγRIIb monomeric ECD (Sino Biological) (human) (UniProt P31994); assay: BLI, FcγR on SA sensor, steady state
Sequence of His-tagged biotinylated human FcγRIIb monomeric ECD (Sino Biological) (human) (P31994 43-217): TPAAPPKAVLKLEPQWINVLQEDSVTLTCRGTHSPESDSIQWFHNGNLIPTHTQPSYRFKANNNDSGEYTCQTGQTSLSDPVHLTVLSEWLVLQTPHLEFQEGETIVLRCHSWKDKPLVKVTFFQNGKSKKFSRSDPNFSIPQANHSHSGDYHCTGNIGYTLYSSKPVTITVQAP

[20] = molecular target: His-tagged biotinylated human FcγRIIa allotype 131H monomeric ECD (Sino Biological) (human) (UniProt P12318); assay: BLI, FcγR on SA sensor, steady state
Sequence of His-tagged biotinylated human FcγRIIa allotype 131H monomeric ECD (Sino Biological) (human) (P12318 34-217): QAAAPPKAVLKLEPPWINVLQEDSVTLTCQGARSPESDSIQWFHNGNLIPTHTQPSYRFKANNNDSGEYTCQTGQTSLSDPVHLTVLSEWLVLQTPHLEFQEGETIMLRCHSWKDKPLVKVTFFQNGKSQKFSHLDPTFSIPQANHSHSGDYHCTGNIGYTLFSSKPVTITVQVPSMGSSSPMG

Substance	Kd [3]	Kd [4]	Kd [5]	Kd [7]	Kd [8]	Kd [10]	koff [8]	kon [8]	fold reduction of binding affinity vs wild-type IgG2a [17]	Kd [18]	koff [18]	kon [18]	further results
wild-type anti-human CD20 IgG1 antibody (IgG1-CD20)	7450 nM	565 nM	2850 nM	1040 nM	124 nM	1.84 nM							Kd [1]: 3900 nM; Kd [2]: 4250 nM; Kd [6]: 415 nM; Kd [9]: 0.626 nM
anti-human CD20 IgG1-L234F-L235E-G236R-K409R (antibody)													reduction of ADCC of Raji cells [11]: 69%
murine anti-human CD20 IgG2a-L234F-L235E-G236R (antibody)									100 fold	430 nM	0.00227 s⁻¹	5300 M⁻¹ s⁻¹	

The next lines start with results.

Kd [3]	Kd [4]	Kd [5]	Kd [7]	Kd [8]	Kd [10]	koff [8]	kon [8]	fold reduction of binding affinity vs wild-type IgG2a [17]	Kd [18]	koff [18]	kon [18]	Substance	further results
				238 nM		0.00231 s⁻¹	9730 M⁻¹ s⁻¹					murine anti-human CD20 IgG2a-L234A-L235A (antibody)	fold reduction vs wt IgG2a [12]: 100 fold; Kd [13]: 13800 nM; Kd [14]: 11700 nM; Kd [15]: 13800 nM; Kd [16]: 3610 nM; koff [16]: 0.0163 s⁻¹; kon [16]: 4530 M⁻¹ s⁻¹
								100 fold	364 nM	0.002 s⁻¹	5500 M⁻¹ s⁻¹	murine anti-human CD20 IgG2a-L234A-L235A-P329G (antibody)	
6900 nM	1950 nM	6400 nM	145 nM	3.82 nM	1.27 nM	0.000619 s⁻¹	162000 M⁻¹ s⁻¹					wild-type murine anti-human CD20 IgG2a antibody	Kd [19]: 17000 nM; Kd [20]: 1850 nM; koff [10]: 0.00039 s⁻¹; kon [10]: 311000 M⁻¹ s⁻¹
